Experimental data reported in paper doi:10.1101/2025.10.25.684504.
Blank lines part the entries; values can stand above or below the substance they belong to.

Key:
Test in all cases: cryo-EM structure
[1] = target: ApCsm6 R723A (Actinomyces procaprae)
[2] = target: ApCsm6 H369A (Actinomyces procaprae)
[3] = target: Actinomyces procaprae Csm6 (ApCsm6), wild type (Actinomyces procaprae)

stoichiometry N [1]: 4
Substance: ApCsm6 R723A (enzyme)

stoichiometry N [2]: 4
Substance: ApCsm6 H369A (enzyme)

stoichiometry N [3]: 4
Substance: Actinomyces procaprae Csm6 (ApCsm6), wild type (enzyme)
